Laboratory results published in patent publication US6337206B1 (priority 1997, dated 2002).
Read-outs that look alike come from different tables or passages of the source. No end group written: not given here.

Legend:
hGALR2 [1] = biological target: hGALR2 (UniProt O43603); assay: competition
hGALR1* (human) = hGALR1* (human) (UniProt P47211); assay: competition
rat GALR2 = rat GALR2 (UniProt O08726); assay: competition
rat GALR2 (clone 27A) [2] = biological target: T1, rat GALR2 (clone 27A) (Rattus norvegicus, UniProt O08726); assay: biochemical
T1 sequence (O08726 1-372): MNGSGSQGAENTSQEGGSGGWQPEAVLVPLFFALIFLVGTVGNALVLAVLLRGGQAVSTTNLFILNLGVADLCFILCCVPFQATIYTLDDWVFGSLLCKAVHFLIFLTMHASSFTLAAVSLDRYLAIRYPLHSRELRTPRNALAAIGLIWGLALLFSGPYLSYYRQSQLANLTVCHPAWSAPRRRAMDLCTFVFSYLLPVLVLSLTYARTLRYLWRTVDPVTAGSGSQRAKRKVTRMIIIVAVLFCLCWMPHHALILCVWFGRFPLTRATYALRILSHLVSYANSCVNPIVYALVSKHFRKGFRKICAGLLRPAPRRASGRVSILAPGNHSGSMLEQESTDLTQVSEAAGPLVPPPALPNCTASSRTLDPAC

rat GALR1 [3] = biological target: T2, rat GALR1 (Rattus norvegicus, UniProt Q62805); assay: biochemical
T2 sequence (Q62805 1-346): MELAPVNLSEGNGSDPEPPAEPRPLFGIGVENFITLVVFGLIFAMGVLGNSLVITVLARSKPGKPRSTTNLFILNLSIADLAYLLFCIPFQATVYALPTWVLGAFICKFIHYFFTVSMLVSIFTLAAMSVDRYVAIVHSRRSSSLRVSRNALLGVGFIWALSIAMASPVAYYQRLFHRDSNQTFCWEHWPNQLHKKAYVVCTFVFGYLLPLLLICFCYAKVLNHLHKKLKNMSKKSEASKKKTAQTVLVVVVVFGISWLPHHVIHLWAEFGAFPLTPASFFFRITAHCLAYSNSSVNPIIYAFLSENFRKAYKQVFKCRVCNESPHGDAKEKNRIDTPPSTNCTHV

rat GALR2 (clone 27A) [4] = biological target: T3, rat GALR2 (clone 27A) (rat, UniProt O08726 1-372); assay: competition of 125I-human galanin binding, COS-7 membranes
T3 construct: Full-length 372-amino-acid receptor expressed in transiently transfected COS-7 cells; also called pCI.neo/27A
T3 sequence: T1 sequence (O08726 1-372)

hGALR2 [5] = biological target: hGALR2 (UniProt O43603); assay: cell-based or functional assay
rat GALR1 [6] = biological target: T4, rat GALR1 (rat, UniProt Q62805 1-346); assay: competition of 125I-human galanin binding, membranes
T4 sequence: T2 sequence (Q62805 1-346)

galanin receptors = conditions: hypothalamus, ventral hippocampus, basal forebrain, spinal cord, pancreas, pituitary; read-out: Kd of specific binding; cited from earlier work
human GALR2 [7] = biological target: T5, human GALR2 (Homo sapiens, UniProt O43603); assay: Aequorin bioluminescence assay in 293-AEQ17 cells, human GALR2; assay type: cell-based; conditions: read-out: EC50, aequorin bioluminescence; human GALR2 in 293-AEQ17 cells
T5 construct: expressed in transfected cells; host or cells: 293-AEQ17 (aequorin-expressing 293 line)
T5 sequence (O43603 1-387): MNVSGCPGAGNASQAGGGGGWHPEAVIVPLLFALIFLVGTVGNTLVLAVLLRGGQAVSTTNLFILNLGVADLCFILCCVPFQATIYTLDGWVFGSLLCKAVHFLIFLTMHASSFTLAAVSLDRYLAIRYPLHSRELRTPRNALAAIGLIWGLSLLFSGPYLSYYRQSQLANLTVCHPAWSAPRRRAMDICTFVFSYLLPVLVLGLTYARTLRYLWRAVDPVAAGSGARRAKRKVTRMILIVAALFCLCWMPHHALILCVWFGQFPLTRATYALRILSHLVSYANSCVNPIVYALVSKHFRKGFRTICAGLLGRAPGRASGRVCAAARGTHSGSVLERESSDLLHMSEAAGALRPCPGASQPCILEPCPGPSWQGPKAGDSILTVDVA

rat GALR2 (clone 27A) [8] = biological target: T1, rat GALR2 (clone 27A)
Experimental: Mammalian COS-7 cells were transfected by electroporation. COS-7 cells (1×10^7) were suspended in 0.85 ml of Ringers' buffer and 15 mg of the pCI.neo/27A clone was added to a 0.4 mm electroporation cuvette (Bio-Rad, Hercules, Calif.). Current was applied (960 μF, 260 V) using a Bio-Rad Electroporator device and the cells were transferred to a T-180 flask (Corning). Expression was allowed to proceed for 72 hrs.
(§1) Membranes were prepared from transfected cells following dissociation in enzyme-free dissociation solution (Specialty Media, Lavallette, N.J.) by disruption in a Dounce homogenizer in ice-cold membrane buffer (10 mM Tris, pH 7.4, 10 mM PMSF, 10 μM phosphoramidon, and 40 μg/ml bacitracin). After a low speed (1100×g for 10 min. at 4° C.) and a high speed centrifugation (38,700×g for 15 min. at 4° C.), membranes were resuspended in buffer and protein concentration determined (Bio-Rad assay kit). […] Reactions were initiated by the addition of membranes and the incubation was allowed to proceed at room temperature for 1 hour. […] Incubations were terminated by rapid filtration through GF/C filters which had been presoaked with 0.1% polyethylamine using a TOMTEC (Orange, Conn.) cell harvester. The results were analyzed using the Prism software package (GraphPad, San Diego, Calif.).

rat GALR1 [9] = biological target: T2, rat GALR1
Experimental: as §1

human GALR2 [10] = biological target: T6, human GALR2 (human, UniProt O43603 1-387); assay: cell-based or functional assay
T6 sequence: T5 sequence (O43603 1-387)

human GALR2 [11] = biological target: T7, human GALR2 (UniProt O43603 1-387); assay: 125I-human galanin competition binding
T7 chain: T5 sequence (O43603 1-387)

hGALR1* (human), sequence (P47211 whole entry): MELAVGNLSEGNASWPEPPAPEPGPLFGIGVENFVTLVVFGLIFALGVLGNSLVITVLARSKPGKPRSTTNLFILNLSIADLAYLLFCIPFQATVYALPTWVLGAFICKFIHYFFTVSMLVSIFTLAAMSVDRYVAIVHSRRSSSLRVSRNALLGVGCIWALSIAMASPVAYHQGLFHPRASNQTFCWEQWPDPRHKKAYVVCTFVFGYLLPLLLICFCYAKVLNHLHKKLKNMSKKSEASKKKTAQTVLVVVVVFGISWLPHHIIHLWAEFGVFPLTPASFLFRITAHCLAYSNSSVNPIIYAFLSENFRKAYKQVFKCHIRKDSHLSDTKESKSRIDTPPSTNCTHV

## M35
hGALR2 [1]
  IC50: 5.6 nM
hGALR1* (human)
  IC50: 0.04 nM

## C7
hGALR2 [1]
  IC50: 40.5 nM
hGALR1* (human)
  IC50: 6.3 nM
Rat GALR2
  IC50: 13.5 nM

## CC(C)C[C@H](NC(=O)[C@H](CC(C)C)NC(=O)[C@@H](Cc1c[nH]c2ccccc12)NC(=O)[C@H](Cc1ccccc1)NC(=O)[C@@H](Cc1c[nH]c2ccccc12)NC(=O)[C@H](CCC(N)=O)NC(=O)[C@H](CCC(N)=O)NC(=O)[C@@H]1CCCN1C(=O)[C@H](CCCCN)NC(=O)[C@@H]1CCCN1C(=O)[C@@H](CCCNC(=N)N)NC(=O)[C@@H]1CCCN1C(=O)CNC(=O)[C@H](CC(C)C)NC(=O)[C@H](CC(C)C)NC(=O)[C@H](Cc1ccc(O)cc1)NC(=O)CNC(=O)[C@H](C)NC(=O)[C@H](CO)NC(=O)[C@H](CC(N)=O)NC(=O)[C@H](CC(C)C)NC(=O)[C@@H](NC(=O)[C@H](Cc1c[nH]c2ccccc12)NC(=O)CN)[C@@H](C)O)C(N)=O [C7]
Rat GALR2 (clone 27A) [2]
  IC50: 23 ± 13 nM
Rat GALR1 [3]
  IC50: 4.9 ± 3 nM

## M40
hGALR2 [1]
  IC50: 9.5 nM
hGALR1* (human)
  IC50: 0.48 nM
Rat GALR2
  IC50: 1.8 nM

## M40 (peptide)
Rat GALR2 (clone 27A) [4]
  IC50: 1.9 nM
hGALR2 [5]
  EC50, aequorin bioluminescence in 293-AEQ17 cells: 8.8 nM
Rat GALR1 [6]
  IC50: 0.01 nM

## galantide(M15) (peptide)
Rat GALR1 [6]
  IC50: 1 nM

## 125I-galanin
Galanin receptors
  Kd: ~1 nM

## CC[C@H](C)[C@H](NC(=O)[C@H](C)NC(=O)[C@H](Cc1c[nH]cn1)NC(=O)[C@@H]1CCCN1C(=O)CNC(=O)[C@H](CC(C)C)NC(=O)[C@H](CC(C)C)NC(=O)[C@H](Cc1ccc(O)cc1)NC(=O)CNC(=O)[C@H](C)NC(=O)[C@H](CO)NC(=O)[C@H](CC(N)=O)NC(=O)[C@H](CC(C)C)NC(=O)[C@@H](N)[C@@H](C)O)C(=O)N[C@@H](CC(=O)O)C(=O)N[C@@H](CC(N)=O)C(=O)N[C@@H](Cc1c[nH]cn1)C(=O)N[C@@H](CCCNC(=N)N)C(=O)N[C@@H](CO)C(=O)N[C@@H](Cc1ccccc1)C(=O)N[C@@H](CO)C(=O)N[C@@H](CC(=O)O)C(=O)N[C@@H](CCCCN)C(=O)N[C@@H](Cc1c[nH]cn1)C(=O)NCC(=O)N[C@@H](CC(C)C)C(=O)N[C@H](C(N)=O)[C@@H](C)O [rat Gal (3-29)]
Human GALR2 [7]
  EC50: > 10000 nM
Rat GALR2 (clone 27A) [8]
  IC50: > 1000 nM
Rat GALR1 [9]
  IC50: > 1000 nM

## M35 (peptide)
Rat GALR2 (clone 27A) [4]
  IC50: 0.43 nM
hGALR2 [5]
  EC50, aequorin bioluminescence in 293-AEQ17 cells: 44 nM
Rat GALR1 [6]
  IC50: 0.9 nM

B1: rat Gal (2-29) (peptide, UniProt P10683 34-61, looked up)
peptide: WTLNSAGYLLGPHAIDNHRSFSDKHGLT
notes: range 2-29; also called rGAL(2-29)
Human GALR2 [10]
  EC50, aequorin bioluminescence in 293-AEQ17 cells: 31 nM
Rat GALR2 (clone 27A) [4]
  IC50: 2.9 nM
Human GALR2 [11]
  IC50: 15.4 nM

B2: rat galanin (peptide)
peptide: GWTLNSAGYLLGPHAIDNHRSFSDKHGLT
modifications: ends and bridges not checked
Human GALR2 [11]
  IC50: 1.6 nM

B3: rat Gal (3-29) (peptide)
peptide: TLNSAGYLLGPHAIDNHRSFSDKHGLT
Human GALR2 [10]
  EC50, aequorin bioluminescence in 293-AEQ17 cells: > 10000 nM
Human GALR2 [11]
  IC50: > 1000 nM

B4: human Gal (1-19) (peptide, UniProt P22466 33-51, looked up)
peptide: GWTLNSAGYLLGPHAVGNH
notes: range 1-19; also called hGal (1-19)
Rat GALR1 [6]
  IC50: 0.86 nM
